Results published in patent US20230301998A1 (SANFORD BURNHAM PREBYS MEDICAL DISCOVERY INSTITUTE, published 2023).

Tests used:
Assay in all cases: Flag IP of Flag-SHARPIN from WM115 lysate, on-bead tryptic digestion, LC/MS-MS
HSPA8 = molecular target: T1, HSPA8 (human, UniProt P11142 2-646)
T1 construct: endogenous protein co-purified from WM115 lysate
Description: (§1) To identify SHARPIN-interacting proteins, WM115 cells were transfected with Flag-tagged SHARPIN or control empty plasmid. Cell lysates were prepared using 1% Triton X-100 buffer [50 mM Tris-HCl, pH7.4, 1% (v/v) Triton X-100, 150 mM NaCl, 1 mM EDTA, and protease and phosphatase inhibitor cocktails (Thermo Fisher Scientific)]. Lysates were pre-cleared with protein A/G beads (Santa Cruz Biotechnology) for 1 h at 4° C. followed by immunoprecipitation using FLAG-M2-agarose beads (Sigma-Aldrich) overnight at 4° C. Beads were then washed with lysis buffer and TBS containing lx protease inhibitor cocktail before being subjected to on-bead tryptic digestion followed by mass spectrometry. In Vitro Methylation Assay.

PKM = molecular target: T2, PKM (human, UniProt P14618 2-531, limits assumed)
T2 construct: endogenous protein co-purified from WM115 lysate
T2 sequence (P14618 2-531 limits assumed): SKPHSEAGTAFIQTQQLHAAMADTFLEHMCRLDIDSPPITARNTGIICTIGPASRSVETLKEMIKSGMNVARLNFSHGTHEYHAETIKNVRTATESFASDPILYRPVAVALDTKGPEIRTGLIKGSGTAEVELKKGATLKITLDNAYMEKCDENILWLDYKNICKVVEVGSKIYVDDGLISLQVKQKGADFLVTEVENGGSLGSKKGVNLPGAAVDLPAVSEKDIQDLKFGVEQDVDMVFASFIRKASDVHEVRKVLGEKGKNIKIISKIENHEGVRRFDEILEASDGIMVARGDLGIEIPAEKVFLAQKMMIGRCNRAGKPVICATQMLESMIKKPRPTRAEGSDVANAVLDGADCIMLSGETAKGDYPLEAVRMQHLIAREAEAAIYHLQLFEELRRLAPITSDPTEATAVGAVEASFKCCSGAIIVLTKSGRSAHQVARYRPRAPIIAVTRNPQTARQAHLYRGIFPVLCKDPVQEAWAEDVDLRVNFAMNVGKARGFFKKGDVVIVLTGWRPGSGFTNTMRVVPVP
Description: as §1

TUBB = molecular target: T3, TUBB (human, UniProt P07437 1-444)
T3 construct: endogenous protein co-purified from WM115 lysate
T3 sequence (P07437 whole entry): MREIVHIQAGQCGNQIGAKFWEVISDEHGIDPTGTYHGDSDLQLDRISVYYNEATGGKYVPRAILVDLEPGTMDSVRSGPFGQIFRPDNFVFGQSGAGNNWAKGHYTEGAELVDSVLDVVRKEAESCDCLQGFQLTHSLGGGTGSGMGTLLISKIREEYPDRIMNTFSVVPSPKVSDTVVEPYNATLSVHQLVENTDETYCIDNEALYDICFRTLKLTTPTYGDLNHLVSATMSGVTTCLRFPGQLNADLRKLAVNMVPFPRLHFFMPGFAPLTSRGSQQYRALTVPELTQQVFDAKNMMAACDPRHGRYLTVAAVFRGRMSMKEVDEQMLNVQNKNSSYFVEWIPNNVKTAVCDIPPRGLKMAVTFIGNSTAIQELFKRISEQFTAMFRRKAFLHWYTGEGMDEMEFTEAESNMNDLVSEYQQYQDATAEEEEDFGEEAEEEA
Description: as §1

FLNA = molecular target: T4, FLNA (human, UniProt P21333 2-2647, limits assumed)
T4 construct: endogenous protein co-purified from WM115 lysate
Description: as §1

PFKFB2 = molecular target: T5, PFKFB2 (human, UniProt O60825 2-505, limits assumed)
T5 construct: endogenous protein co-purified from WM115 lysate
T5 sequence (O60825 2-505 limits assumed): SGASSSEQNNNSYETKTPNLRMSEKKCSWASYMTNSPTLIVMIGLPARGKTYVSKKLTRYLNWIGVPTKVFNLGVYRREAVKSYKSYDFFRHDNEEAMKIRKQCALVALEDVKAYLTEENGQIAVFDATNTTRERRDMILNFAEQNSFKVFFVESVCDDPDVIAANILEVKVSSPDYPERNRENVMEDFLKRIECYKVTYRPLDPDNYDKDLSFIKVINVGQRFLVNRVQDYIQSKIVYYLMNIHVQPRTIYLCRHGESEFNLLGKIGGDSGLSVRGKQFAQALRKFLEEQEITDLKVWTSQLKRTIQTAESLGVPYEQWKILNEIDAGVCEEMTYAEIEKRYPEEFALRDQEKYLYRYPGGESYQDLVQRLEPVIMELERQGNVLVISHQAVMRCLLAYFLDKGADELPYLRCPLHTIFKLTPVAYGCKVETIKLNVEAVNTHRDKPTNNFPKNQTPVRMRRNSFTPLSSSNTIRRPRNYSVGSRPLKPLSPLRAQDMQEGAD
Description: as §1

HSPD1 = molecular target: T6, HSPD1 (human, UniProt P10809 27-573)
T6 construct: endogenous protein co-purified from WM115 lysate
Description: as §1

XRCC6 = molecular target: T7, XRCC6 (human, UniProt P12956 2-609)
T7 construct: endogenous protein co-purified from WM115 lysate
T7 sequence (P12956 2-609 limits assumed): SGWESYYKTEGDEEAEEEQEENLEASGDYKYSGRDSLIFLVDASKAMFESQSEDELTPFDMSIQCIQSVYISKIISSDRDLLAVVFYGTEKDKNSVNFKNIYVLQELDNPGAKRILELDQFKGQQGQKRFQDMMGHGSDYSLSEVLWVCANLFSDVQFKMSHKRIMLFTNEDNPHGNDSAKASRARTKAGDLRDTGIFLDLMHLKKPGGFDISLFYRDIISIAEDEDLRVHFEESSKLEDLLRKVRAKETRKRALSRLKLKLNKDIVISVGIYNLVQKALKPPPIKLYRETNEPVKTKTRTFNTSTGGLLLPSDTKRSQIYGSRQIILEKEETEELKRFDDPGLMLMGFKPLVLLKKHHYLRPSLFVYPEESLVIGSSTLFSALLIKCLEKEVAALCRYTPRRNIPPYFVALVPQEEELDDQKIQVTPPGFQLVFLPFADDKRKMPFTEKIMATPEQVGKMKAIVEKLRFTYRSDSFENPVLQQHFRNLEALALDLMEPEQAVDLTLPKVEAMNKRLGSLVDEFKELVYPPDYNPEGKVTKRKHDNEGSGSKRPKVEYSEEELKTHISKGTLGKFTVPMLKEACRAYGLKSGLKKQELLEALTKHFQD
Description: as §1

HSPA9 = molecular target: T8, HSPA9 (human, UniProt P38646 47-679)
T8 construct: endogenous protein co-purified from WM115 lysate
T8 sequence (P38646 47-679 limits assumed): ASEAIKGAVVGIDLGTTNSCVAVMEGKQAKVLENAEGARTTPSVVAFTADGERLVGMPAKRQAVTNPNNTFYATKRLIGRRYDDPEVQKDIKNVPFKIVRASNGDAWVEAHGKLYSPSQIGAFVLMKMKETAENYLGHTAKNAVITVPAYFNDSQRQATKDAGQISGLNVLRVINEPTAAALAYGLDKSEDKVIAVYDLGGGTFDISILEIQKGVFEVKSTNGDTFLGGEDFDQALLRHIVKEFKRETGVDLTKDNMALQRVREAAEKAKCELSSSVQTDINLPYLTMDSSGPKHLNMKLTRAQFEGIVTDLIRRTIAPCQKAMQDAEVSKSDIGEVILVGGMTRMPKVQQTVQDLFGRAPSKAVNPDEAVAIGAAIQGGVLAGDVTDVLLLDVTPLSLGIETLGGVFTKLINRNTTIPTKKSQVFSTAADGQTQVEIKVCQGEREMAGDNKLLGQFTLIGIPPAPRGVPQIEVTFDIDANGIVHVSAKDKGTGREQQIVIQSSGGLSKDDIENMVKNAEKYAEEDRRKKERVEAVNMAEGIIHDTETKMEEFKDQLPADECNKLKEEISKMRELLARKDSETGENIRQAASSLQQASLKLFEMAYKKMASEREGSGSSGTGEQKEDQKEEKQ
Description: as §1

ATP5B = molecular target: T9, ATP5B (human, UniProt P06576 48-529)
T9 construct: endogenous protein co-purified from WM115 lysate
T9 sequence (P06576 48-529 limits assumed): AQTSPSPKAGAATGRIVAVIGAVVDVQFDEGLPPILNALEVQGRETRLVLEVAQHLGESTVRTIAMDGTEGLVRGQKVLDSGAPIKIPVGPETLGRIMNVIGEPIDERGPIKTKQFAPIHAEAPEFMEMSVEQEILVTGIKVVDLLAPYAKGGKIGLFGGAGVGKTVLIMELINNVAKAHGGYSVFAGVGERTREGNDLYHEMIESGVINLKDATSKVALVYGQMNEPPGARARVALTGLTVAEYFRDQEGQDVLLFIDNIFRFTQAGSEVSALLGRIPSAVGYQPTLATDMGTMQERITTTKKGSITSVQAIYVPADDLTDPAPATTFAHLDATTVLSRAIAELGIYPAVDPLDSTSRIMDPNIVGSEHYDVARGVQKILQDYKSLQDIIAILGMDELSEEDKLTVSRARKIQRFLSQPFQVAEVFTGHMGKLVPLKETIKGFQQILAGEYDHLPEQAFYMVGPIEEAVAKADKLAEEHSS
Description: as §1

HNRNPU = molecular target: T10, HNRNPU (human, UniProt Q00839 2-825, limits assumed)
T10 construct: endogenous protein co-purified from WM115 lysate
T10 sequence (Q00839 2-825 limits assumed): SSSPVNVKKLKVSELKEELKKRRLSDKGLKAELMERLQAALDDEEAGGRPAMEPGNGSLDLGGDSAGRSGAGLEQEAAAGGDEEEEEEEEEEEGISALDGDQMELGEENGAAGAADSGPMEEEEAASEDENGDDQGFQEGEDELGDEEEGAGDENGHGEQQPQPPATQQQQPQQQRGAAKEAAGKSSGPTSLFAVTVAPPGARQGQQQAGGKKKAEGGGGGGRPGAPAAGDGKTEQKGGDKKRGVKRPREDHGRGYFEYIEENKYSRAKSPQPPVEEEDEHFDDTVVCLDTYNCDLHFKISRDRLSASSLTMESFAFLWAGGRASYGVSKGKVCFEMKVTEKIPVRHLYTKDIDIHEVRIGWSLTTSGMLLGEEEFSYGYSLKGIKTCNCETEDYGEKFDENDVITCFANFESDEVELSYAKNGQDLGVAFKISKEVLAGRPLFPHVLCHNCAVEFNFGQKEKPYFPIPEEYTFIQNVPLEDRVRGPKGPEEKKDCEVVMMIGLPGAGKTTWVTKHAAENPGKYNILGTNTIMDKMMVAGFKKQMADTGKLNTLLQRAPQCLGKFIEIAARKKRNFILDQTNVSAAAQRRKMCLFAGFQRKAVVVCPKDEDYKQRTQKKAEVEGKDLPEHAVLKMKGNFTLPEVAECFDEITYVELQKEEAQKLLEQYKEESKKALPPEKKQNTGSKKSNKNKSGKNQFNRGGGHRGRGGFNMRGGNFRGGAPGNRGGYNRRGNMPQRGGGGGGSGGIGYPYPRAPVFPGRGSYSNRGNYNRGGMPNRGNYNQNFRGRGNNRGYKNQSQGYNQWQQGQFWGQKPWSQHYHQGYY
Description: as §1

RBM10 = molecular target: T11, RBM10 (human, UniProt P98175 1-930, limits assumed)
T11 construct: endogenous protein co-purified from WM115 lysate
Description: as §1

PRPF31 = molecular target: T12, PRPF31 (human, UniProt Q8WWY3 1-499)
T12 sequence (looked up): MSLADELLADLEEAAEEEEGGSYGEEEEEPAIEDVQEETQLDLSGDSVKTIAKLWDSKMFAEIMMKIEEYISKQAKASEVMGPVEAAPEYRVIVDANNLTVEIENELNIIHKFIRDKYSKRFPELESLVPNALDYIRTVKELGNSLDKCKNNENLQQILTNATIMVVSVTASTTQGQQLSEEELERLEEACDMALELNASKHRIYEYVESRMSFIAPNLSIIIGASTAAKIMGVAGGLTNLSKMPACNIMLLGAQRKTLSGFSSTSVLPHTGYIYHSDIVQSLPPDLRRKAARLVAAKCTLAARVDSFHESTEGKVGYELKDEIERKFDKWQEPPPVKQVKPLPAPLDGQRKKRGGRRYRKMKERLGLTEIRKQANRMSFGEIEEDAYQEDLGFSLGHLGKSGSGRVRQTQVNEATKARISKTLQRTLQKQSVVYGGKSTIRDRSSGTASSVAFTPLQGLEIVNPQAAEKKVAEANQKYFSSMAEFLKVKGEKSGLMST
Description: as §1

XRCC5 = molecular target: T13, XRCC5 (human, UniProt P13010 2-732)
T13 construct: endogenous protein co-purified from WM115 lysate
Description: as §1

PNKP = molecular target: T14, PNKP (human, UniProt Q96T60 1-521)
T14 construct: endogenous protein co-purified from WM115 lysate
Description: as §1

PDIA6 = molecular target: T15, PDIA6 (human, UniProt Q15084 20-440)
T15 construct: endogenous protein co-purified from WM115 lysate
T15 sequence (looked up): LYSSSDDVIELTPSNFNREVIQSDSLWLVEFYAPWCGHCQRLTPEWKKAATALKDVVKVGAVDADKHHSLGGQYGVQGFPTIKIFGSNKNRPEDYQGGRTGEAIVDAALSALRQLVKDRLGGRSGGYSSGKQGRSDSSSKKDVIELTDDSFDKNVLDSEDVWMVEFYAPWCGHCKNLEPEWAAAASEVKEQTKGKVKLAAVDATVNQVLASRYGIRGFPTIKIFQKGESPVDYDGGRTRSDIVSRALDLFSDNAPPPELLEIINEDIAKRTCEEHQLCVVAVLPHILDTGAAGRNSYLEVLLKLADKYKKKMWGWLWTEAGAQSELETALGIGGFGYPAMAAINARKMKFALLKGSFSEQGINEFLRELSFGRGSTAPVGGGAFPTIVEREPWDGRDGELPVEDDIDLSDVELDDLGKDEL
Description: as §1

FASN = molecular target: T16, FASN (human, UniProt P49327 1-2511)
T16 construct: endogenous protein co-purified from WM115 lysate
Description: as §1

Measured: binding result

T1 sequence (P11142 2-646 limits assumed): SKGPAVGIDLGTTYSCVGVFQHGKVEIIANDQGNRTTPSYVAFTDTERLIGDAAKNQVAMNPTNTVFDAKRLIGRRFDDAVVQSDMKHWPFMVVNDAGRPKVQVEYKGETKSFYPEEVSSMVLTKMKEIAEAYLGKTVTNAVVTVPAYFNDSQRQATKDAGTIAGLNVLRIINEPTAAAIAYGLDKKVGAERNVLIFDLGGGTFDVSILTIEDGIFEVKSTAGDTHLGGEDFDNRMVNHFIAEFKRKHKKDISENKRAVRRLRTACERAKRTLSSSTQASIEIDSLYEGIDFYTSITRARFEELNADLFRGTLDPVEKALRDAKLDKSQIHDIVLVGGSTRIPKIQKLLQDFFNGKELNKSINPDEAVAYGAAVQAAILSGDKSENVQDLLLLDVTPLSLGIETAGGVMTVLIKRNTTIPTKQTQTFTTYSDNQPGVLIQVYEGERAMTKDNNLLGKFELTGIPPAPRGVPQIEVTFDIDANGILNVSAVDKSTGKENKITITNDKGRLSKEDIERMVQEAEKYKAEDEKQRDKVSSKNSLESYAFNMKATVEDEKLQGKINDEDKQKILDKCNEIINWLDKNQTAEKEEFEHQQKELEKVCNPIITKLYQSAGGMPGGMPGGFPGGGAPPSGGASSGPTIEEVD

B1: Flag-tagged SHARPIN (other, human, UniProt Q9H0F6 1-387, looked up)
chain: MAPPAGGAAAAASDLGSAAVLLAVHAAVRPLGAGPDAEAQLRRLQLSADPERPGRFRLELLGAGPGAVNLEWPLESVSYTIRGPTQHELQPPPGGPGTLSLHFLNPQEAQRWAVLVRGATVEGQNGSKSNSPPALGPEACPVSLPSPPEASTLKGPPPEADLPRSPGNLTEREELAGSLARAIAGGDEKGAAQVAAVLAQHRVALSVQLQEACFPPGPIRLQVTLEDAASAASAASSAHVALQVHPHCTVAALQEQVFSELGFPPAVQRWVIGRCLCVPERSLASYGVRQDGDPAFLYLLSAPREAPATGPSPQHPQKMDGELGRLFPPSLGLPPGPQPAASSLPSPLQPSWSCPSCTFINAPDRPGCEMCSTQRPCTWDPLAAAST
notes: also called Flag-SHARPIN; not shown: FLAG tag
binds: all assays above
